The results in this text go back to publication PMC7555452, “Functional Characterization of a Putative RNA Demethylase ALKBH6 in Arabidopsis Growth and Abiotic Stress Responses”.

This series concerns the target T1, ALKBH6 (Arabidopsis thaliana, UniProt Q9SUP1 1-241).
T1 sequence: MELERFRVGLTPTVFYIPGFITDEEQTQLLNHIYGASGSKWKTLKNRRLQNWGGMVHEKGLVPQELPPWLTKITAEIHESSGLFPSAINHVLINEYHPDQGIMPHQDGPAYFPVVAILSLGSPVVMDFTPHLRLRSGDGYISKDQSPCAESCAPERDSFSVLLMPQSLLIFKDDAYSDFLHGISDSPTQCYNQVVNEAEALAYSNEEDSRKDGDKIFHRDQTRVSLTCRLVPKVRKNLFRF
As to the kind of experiment: EMSA; 3, 5, 7 uM protein; 10 mM Tris-HCl pH 8.0, 150 mM NaCl, 1.0 mM EDTA, 10% glycerol; 5.0 pmol RNA in 20 uL, on ice 30 min; 6% native PAGE, 0.25x TBE, 4 °C. The conditions noted are these: protein: recombinant; tags: His-TF (pCold TF) fusion, cleaved with HRV 3C protease; Ni-NTA purified; label: 5'-fluorescein. In general terms: Mobility shift assays separate free from complexed probe on a gel.

Take GGACGCUUCUUCGACCU (ssRNA) [m5C motif RNA unmodified]: the binding result was “binds”. Then CGUAGGCUACAGAGAAGCCUU (ssRNA) [MAT2A RNA unmodified], with “binds”; and GGACGCUUCUUCGACCU (ssRNA, m5C at position 9) [m5C motif RNA m5C], with “binds”.

On to CGUAGGCUACAGAGAAGCCUU (ssRNA, m6A at position 11) [MAT2A RNA m6A], for which the binding result is “binds”.

For GAAUCCGAACUAGUUCU (ssRNA) [SOS3 RNA unmodified], the binding result is “binds”.

As to GAAUCCGAACUAGUUCU (ssRNA, m6A at position 9) [SOS3 RNA m6A], the binding result is reported as “binds”.
